Experimental data taken from patent publication US20240100133A1, “ENZYMATICALLY INACTIVE GRANZYME A AND USES THEREFORE” (Saint Louis University, priority 2022, published 2024).

What was measured:
[1] = test system: mycobacteria within iMac TLR4KO cells; test: MGIA in iMac TLR4KO cells; type: cell-based, mouse
[2] = target: T1, PDIA1 (Homo sapiens, UniProt P07237); test: Incubation of GzmA-WT with recombinant PDIA1 (silver stain, anti-GzmA WB); type: biochemical; parameters: The cDNA of human PDIA1 (residues 18-479) was cloned into a pET-23 vector expression system; His-tag (N); made in house; host or cells: E. coli BL21(DE3); details: fresh PDIA1; not present with heat-inactivated PDIA1
Description: Expression and purification of human recombinant PDIA1. The cDNA of human PDIA1 (residues 18-479) was cloned into a pET-23 vector expression system. An N-terminal His-tag was engineered to facilitate purification. Sequence verified plasmids were transfected into BL21(DE3) cells. Cells were grown in LB medium until an OD600 of ˜0.6. Protein expression was induced with 0.5 mM IPTG. After overnight incubation at 37° C., cells were harvested by centrifugation. Soluble PDI protein was extracted by treating the cells with a nonionic detergent (B-PER, Thermo) followed by purification by affinity chromatography using a TALON resin as described before (Chinnaraj et al., 2021). Briefly, fractions eluted at 200 mM imidazole were pooled, dialyzed overnight in Tris 20 mM pH 7.4 145 mM NaCl to remove imidazole, and then loaded into size exclusion chromatography column 5200 10/300 (Cytiva) to isolate monomeric protein. Final protein concentrations were determined by measuring the absorbance at 280 nm, and using molar extinction coefficient of PDIA1 (i.e., 45755 M-lcm-1). Chemical identity was verified by mass spectrometry. Purify was >98%, as judged by SDS-PAGE.
Target sequence in this assay (P07237 18-479): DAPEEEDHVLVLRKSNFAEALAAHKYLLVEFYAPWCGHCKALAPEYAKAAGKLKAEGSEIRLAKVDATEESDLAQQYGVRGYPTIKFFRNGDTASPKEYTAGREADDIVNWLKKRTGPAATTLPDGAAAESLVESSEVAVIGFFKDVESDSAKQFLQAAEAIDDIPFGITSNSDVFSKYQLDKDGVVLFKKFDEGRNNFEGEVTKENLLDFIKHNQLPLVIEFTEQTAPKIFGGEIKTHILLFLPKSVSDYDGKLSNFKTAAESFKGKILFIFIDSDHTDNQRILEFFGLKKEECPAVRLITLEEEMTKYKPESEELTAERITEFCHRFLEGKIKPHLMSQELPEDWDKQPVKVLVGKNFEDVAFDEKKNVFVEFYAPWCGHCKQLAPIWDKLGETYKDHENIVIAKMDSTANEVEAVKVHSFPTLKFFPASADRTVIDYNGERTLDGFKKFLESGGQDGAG

[3] = target: TLR4 (Homo sapiens, UniProt O00206); test: Immunoprecipitation with anti-GzmA, probed for TLR4; details: human monocyte lysates, infected and uninfected cells
[4] = test system: Connaught BCG within primary CD14+ human monocytes; type: cell-based
[5] = test system: mycobacteria within iMac CD14KO cells; test: MGIA in iMac CD14KO cells; type: cell-based, mouse
[6] = test system: mycobacteria BCG-GFP; type: binding
[7] = test system: Protein Disulfide Isomerase A1 (PDIA1); details: human monocytes infected and treated with GzmA; cited from earlier work
[8] = target: T1, PDIA1; test: STED microscopy colocalization of GzmA with PDIA1; type: cell-based; parameters: endogenous in cells; host or cells: primary human monocytes infected with mycobacteria; details: STED images, infected and treated human monocytes
Description: (§1) Confocal microscopy and Stimulation Emission Depletion (STED) experiments. For confocal and STED microscopy experiments, cells were incubated on coverslips pre-treated with Cell-Tak (Corning #354240). At the time of fixation, cells were washed twice with 1×RT PBS, and then fixed in 4% paraformaldehyde for 15 min at 37° C. Slides were washed thrice for 5 min at RT with 1×PBS, and then blocked with 5% donkey serum (Cat. #017-000-121, Jackson ImmunoResearch, West Grove, PA) with 0.25% Tween-20 (Cat. #P9416, Sigma, St. Louis, MO) and True Stain Fc blocker (added only during blocking step) (Cat. #426101, Biolegend, San Diego, CA). Cells were then incubated overnight at 4° C. with primary antibody anti-GzmA (Cat. #MAB29051, R&D, Minneapolis, MN) at 12.5 μg/mL in blocking buffer, anti-PDIA1 (Cat. #MAB4236, R&D, Minneapolis, MN) at 12.5 μg/mL in blocking buffer, anti-LAMP1 at 12.5 ug/ml (Cat. #MAB4800, R&D, Minneapolis, MN), or anti-ATPSH (Cat. #ab110275, Abcam, Cambridge, UK) at 5 μg/mL in blocking buffer. To remove unbound antibody, cells were washed four times with 1×PBS at RT, and then incubated in the dark for 2 h with secondary antibody conjugated with Alexa Fluor 594 (Cat. #715-545-150, Jackson Immunoresearch, West Grove, PA) at 1:100 or Atto 647N (Cat. #ASR3248, Abcepta, San Diego, Ca) at 1:100. […]
Target sequence in this assay (P07237 18-508): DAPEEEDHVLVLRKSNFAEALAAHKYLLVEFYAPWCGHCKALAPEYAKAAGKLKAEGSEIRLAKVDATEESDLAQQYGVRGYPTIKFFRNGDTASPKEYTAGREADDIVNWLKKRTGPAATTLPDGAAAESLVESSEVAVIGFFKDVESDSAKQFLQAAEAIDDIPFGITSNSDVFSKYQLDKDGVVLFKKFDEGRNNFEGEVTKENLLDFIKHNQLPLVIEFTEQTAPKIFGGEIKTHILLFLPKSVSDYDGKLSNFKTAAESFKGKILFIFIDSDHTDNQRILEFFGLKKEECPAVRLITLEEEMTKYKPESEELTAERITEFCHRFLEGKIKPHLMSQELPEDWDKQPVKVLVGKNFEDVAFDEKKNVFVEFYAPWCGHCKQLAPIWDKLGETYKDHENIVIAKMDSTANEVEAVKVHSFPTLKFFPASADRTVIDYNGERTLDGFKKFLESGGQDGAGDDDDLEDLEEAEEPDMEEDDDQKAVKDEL

[9] = target: T2, CD14 (Homo sapiens, UniProt P08571); test: Immunoprecipitation with anti-GzmA, probed for CD14; details: human monocyte lysates, infected and uninfected cells
T2 sequence (P08571 20-345): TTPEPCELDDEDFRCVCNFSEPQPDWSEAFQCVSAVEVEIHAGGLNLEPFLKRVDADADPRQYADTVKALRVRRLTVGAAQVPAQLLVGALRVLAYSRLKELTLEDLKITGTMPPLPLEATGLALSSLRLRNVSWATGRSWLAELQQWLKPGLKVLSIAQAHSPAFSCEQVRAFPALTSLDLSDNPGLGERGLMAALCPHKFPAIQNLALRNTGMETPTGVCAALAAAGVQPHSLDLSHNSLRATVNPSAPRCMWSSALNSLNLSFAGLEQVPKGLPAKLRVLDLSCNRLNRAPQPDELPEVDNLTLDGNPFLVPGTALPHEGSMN

[10] = thawed aliquots tested up to a week after thawing
[11] = test system: LAMP1 (phagolysosome fusion); test: Confocal microscopy colocalization of BCG-GFP and LAMP1; type: cell-based, human; details: compared with untreated controls
Description: as §1

[12] = test system: mycobacteria within iMac-WT mouse cells; type: cell-based; details: human GzmA on mouse iMac-WT cells

Sequence of TLR4 (O00206 24-839): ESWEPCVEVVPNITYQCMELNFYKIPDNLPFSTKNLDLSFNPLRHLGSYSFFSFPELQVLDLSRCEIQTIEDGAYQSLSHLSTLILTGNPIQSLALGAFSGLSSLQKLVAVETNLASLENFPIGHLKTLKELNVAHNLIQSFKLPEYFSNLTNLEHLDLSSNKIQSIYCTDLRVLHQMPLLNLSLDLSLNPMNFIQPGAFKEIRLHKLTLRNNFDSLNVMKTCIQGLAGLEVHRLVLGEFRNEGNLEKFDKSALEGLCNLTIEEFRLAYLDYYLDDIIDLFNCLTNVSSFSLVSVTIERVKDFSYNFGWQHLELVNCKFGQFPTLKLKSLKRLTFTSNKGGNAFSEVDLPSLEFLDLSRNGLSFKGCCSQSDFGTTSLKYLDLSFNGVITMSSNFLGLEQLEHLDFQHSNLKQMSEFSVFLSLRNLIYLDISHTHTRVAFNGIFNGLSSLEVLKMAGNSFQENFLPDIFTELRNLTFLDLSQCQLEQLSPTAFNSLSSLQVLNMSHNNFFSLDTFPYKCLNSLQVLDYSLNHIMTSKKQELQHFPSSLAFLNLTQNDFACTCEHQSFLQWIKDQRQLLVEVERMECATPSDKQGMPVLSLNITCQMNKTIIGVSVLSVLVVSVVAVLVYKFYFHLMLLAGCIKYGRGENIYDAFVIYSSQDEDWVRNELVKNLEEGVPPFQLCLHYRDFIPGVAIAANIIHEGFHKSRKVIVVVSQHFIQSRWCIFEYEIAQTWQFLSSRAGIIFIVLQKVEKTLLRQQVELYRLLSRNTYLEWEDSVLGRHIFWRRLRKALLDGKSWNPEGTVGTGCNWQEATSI

B1: GzmA-WT: recombinant wild-type human Granzyme A, homodimeric serine protease, purified from HEK293T supernatants (protein)
chain: IIGGNEVTPHSRPYMVLLSLDRKTICAGALIAKDWVLTAAHCNLNKRSQVILGAHSITREEPTKQIMLVKKEFPYPCYDPATREGDLKLLQLMEKAKINKYVTILHLPKKGDDVKPGTMCQVAGWGRTHNSASWSDTLREVNITIIDRKVCNDRNHYNFNPVIGMNMVCAGSLRGGRDSCNGDSGSPLLCEGVFRGVTSFGLENKCGDPRGPGVYILLSKKHLNWIIMTIKGAV
modifications: left off: small tags and cut ends
notes: recombinant wild-type human Granzyme A, homodimeric serine protease, purified from HEK293T supernatants
- inhibition of intracellular mycobacterial growth in TLR4-deficient iMac cells [1]: incapable of inhibiting intracellular mycobacterial growth
- conversion of homodimer by PDIA1 [2]: monomeric band at 27 KDa
- binding to TLR4 (immunoprecipitation) [3]: bound to GzmA-WT
- GzmA inhibitory activity after CD14 neutralization (MGIA) [4]: lost their inhibitory activity
- GzmA inhibitory activity after TLR2 neutralization (MGIA) [4]: does not reverse
- GzmA inhibitory activity after TLR4 neutralization (MGIA) [4]: reversed GzmA-mediated mycobacterial growth inhibition
- intracellular replication of pre-opsonized mycobacteria (excess protein removed) [4]: reduced intracellular replication capacity
- mycobacterial growth inhibition, GzmA added prior to or during infection [4]: maximal inhibitory effects
- mycobacterial growth inhibition, GzmA added to already infected cells [4]: did not mediate inhibition
- inhibition of intracellular mycobacterial replication (MGIA) ([4]; 72 h): inhibits the intracellular replication of mycobacteria
- inhibition of intracellular mycobacterial growth in CD14-deficient iMac cells [5]: incapable of inhibiting intracellular mycobacterial growth
- binding to mycobacteria [6]: bound mycobacteria
- PDIA1 upregulation compared to control [7]: 90%
- degree of co-localization between GzmA and PDIA1 [8]: 75%
- binding to CD14 (immunoprecipitation) [9]: bound to CD14
- stability at 4° C. (retention of substrate activity) [10]: continued to retain its activity
- colocalization between LAMP1 and BCG-GFP [11]: greater degree of colocalization
- inhibition of mycobacterial growth in iMac-WT cells [12]: modestly inhibit mycobacterial growth
